Results on two molecules are retold here after US20150284450A1, “COMBINATION THERAPIES USING ANTI-PSEUDOMONAS PSL AND PCRV BINDING MOLECULES” (priority 2012, published 2015).

Positions count from the first letter of the chain named.

The target of assay [1] is rPcrV protein (recombinant Pseudomonas PcrV) (Pseudomonas aeruginosa). As to the kind of experiment: SPR on Bio-Rad ProteOn XPR36; antibody captured on GLC chip with anti-human IgG, rPcrV injected at multiple concentrations.
The target is the same in assay [2]. Description: SPR on Bio-Rad ProteOn XPR36; antibody captured on GLC chip with anti-human IgG, rPcrV injected at multiple concentrations [table].
The target is the same in assay [3]. Description: Bio-Rad ProteOn XPR36; antibody captured by anti-human IgG on GLC chip, rPcrV injected.

B1: V2L2-germlined mAb (V2L2-GL) (antibody, V domains shown)
VH: EVQLLESGGGLVQPGGSLRLSCAASGFTFSSYAMNWVRQAPGKGLEWVSAITISGITAYYTDSVKGRFTISRDNSKNTLYLQMNSLRAEDTAVYYCAKEEFLPGTHYYYGMDVWGQGTTVTVSS
VL: AIQMTQSPSSLSASVGDRVTITCRASQGIRNDLGWYQQKPGKAPKLVIYSASTLQSGVPSRFSGSGSGTDFTLSISSLQPDDFATYYCLQDYNYPWTFGQGTKVEIK
B1: in assay [1], the Kd (in general, the equilibrium constant for the complex coming apart) was found to be 0.143 nM; the koff (usually the rate constant with which the complex falls apart) worked out at 0.000116 s⁻¹; the kon (usually a measure of how fast the partners come together) came to 808000 M⁻¹ s⁻¹. In assay [2], the Kd worked out at 0.143 nM, the koff stood at 0.000116 s⁻¹ and the kon is 808000 M⁻¹ s⁻¹.

B2: V2L2-MD (germlined lead optimized V2L2) (antibody, V domains shown)
VH: B1 VH with I53M, S63D
VL: B1 VL with V47L, S74T, D81E
For the molecule B2, in assay [1], the Kd was found to be 0.0456 nM, the koff was 4.03e-05 s⁻¹ and the kon is 884000 M⁻¹ s⁻¹. Also, in assay [2], the equilibrium dissociation constant (Kd) worked out at 0.046 nM, the koff stood at 4.03e-05 s⁻¹ and the kon worked out at 884000 M⁻¹ s⁻¹. The fold increase in Kd over V2L2-GL in assay [3] was 2 to 3 fold.
